To fix the notation:
B1: 4D2-hv1-NT (antibody, V domains shown)
VH: QVQLVESGGGLVKPGGSLRLSCAASGFSASDVVMAWYRQAPGKQREFVANLGASSTTRYADSVKGRFTISRDNAKNSLYLQMNSLRAEDTAVYYCNALVWTGSSYNNWGQGTQVTVSS
B2: 4E2-hv1-NT (antibody, V domains shown)
VH: B1 VH with Q1E, S30G, L51I, G52A
B3: 1F4-hv7-NT (antibody, V domains shown)
VH: B1 VH with L51I, G52A
B4: 4E2-hv2-NT (antibody, V domains shown)
VH: B1 VH with Q1E, S30G, A49S, L51I, G52A
B5: 5C12-hv7-NT (antibody, V domains shown)
VH: B1 VH with A49S, L51I, G52A, S54R, S55G, T56S, R58D
B6: 5F8-8E3 (antibody, V domains shown)
VH: EVQLVESGGGLVQPGGSLRLSCAASGFDFSDTHMSWVRQAPGKERELVAIITSGGSTDYVDSVKGRFTISRDNSKNTLYLQMNSLRAEDTAVYYCNARLTTIYWGQGTQVTVSS
B7: 5F8-8H3 (antibody, V domains shown)
VH: B6 VH with D31M, S56K, L99R, T100A
B8: 5F8-7D5 (antibody, V domains shown)
VH: B6 VH with S30E, G55C, L99R, T100A
B9: 5F8-3A3 (antibody, V domains shown)
VH: B6 VH with S53G, N96L, L99R
B10: 5F8-4B12 (antibody, V domains shown)
VH: B6 VH with S30P, S56F, N96R, L99R
B11: 5F8-6D6 (antibody, V domains shown)
VH: B6 VH with H33A, T57V, N96R, L99R
B12: 5F8-8D4 (antibody, V domains shown)
VH: B6 VH with H33F, L99R
B13: R3-2A11 (antibody, V domains shown)
VH: QVQLVESGGDLVQPGGSLRLSCAASGIDFSDTHMGWYRQAPGKQRELVALITSGGFTDYPDSVKGRFTISRDNAKNTMYLQMNTLKLEDTAVYYCNARRTTIYWGQGTQVTVSS
B14: R2-1G4 (antibody, V domains shown)
VH: B13 VH with D10G, Q44E, P60A, L87F
B15: R2-3A5 (antibody, V domains shown)
VH: B13 VH with Q1E, D10G, P60A
B16: R2-1G10 (antibody, V domains shown)
VH: B13 VH with D10G, D28F, Q44E, L50I, F56S, P60V, M78V, T84S, L87F
B17: R1-1C3 (antibody, V domains shown)
VH: B13 VH with Q1E, E6Q, D10G, D28F, Q44E, L50I, F56S, P60V, M78V, L87F
B18: R2-6A10 (antibody, V domains shown)
VH: B13 VH with D10G, Q44E, P60A, L87F, T100S
B19: R2-1A3 (antibody, V domains shown)
VH: B13 VH with Q1E, D10G, A23V, I27F, G55A, P60A, M78V, L87F
B20: R2-6D2 (antibody, V domains shown)
VH: B13 VH with D10G, Q44E, P60A, L87F, R99K
B21: R2-4D2 (antibody, V domains shown)
VH: B1 VH with K13Q, P14A, N73D, S77T, L78V, Y79S, R86K, A87S, T101N
B22: R2-4E2 (antibody, V domains shown)
VH: EVQLVESGGGSVQDGGSLTLSCAASGFSAGDVVMAWYRQAPGKQREFVANIAASSTTRYTDSVKGRFTISRDNAKNTVYLQMNSLKSEDTAVYYCNALVWNGSSYNNWGQGTQVTVSS
B23: R2-4H8 (antibody, V domains shown)
VH: EVQLVESGGGLVQPGGSLRLSCGASGIFFSGVHMGWYRQAPGKERELVALITDSGSADYVDSVKGRFTISRDNAKNTVYLQMNSLKFEDTAVYYCNARTTTIYWGQGTQVTVSS
B24: 3H1-hv7 (antibody, V domains shown)
VH: B6 VH with E1Q, L11V, F27I, S35H, E44Q, L99R, T100S
B25: 3H1-2G3 (antibody, V domains shown)
VH: B6 VH with E1Q, L11V, F27I, S35H, E44Q, G54S, L99R, T100S, Y103L
B26: 3H1-1G9 (antibody, V domains shown)
VH: B6 VH with E1Q, L11V, F27I, S30D, S35H, E44Q, S56L, L99T, T100S
B27: 3H1-6D2 (antibody, V domains shown)
VH: B6 VH with E1Q, L11V, F27I, S30N, S35H, E44Q, G54R, L99R, T100S, I102L
B28: 3H1-2F4 (antibody, V domains shown)
VH: B6 VH with E1Q, L11V, F27I, T32L, S35H, E44Q, L99S, T100S
B29: 3H1-3B9 (antibody, V domains shown)
VH: B6 VH with E1Q, L11V, F27I, S35H, E44Q, S56F, L99T, T100S
B30: 3H1-2A2 (antibody, V domains shown)
VH: B6 VH with E1Q, L11V, F27I, S35H, E44Q, S56F, L99R, T100S
B31: 4E2-hv3-NT (antibody, V domains shown)
VH: B1 VH with Q1E, S30G, A49S, L51I, G52A, R58Y
B32: 4D2-hv3-NT (antibody, V domains shown)
VH: B1 VH with A49S, R58Y
B33: 4D2-hv4-NT (antibody, V domains shown)
VH: B1 VH with A49S, R58N
B34: 4D2-Alpaca-NT (antibody, V domains shown)
VH: B1 VH with K13Q, P14A, N73D, S77T, L78V, Y79S, R86K, A87S
B35: 4D2-hv2-NT (antibody, V domains shown)
VH: B1 VH with A49S
B36: 4E2-Alpaca-NT (antibody, V domains shown)
VH: B22 VH with N101T

Positions count from the first letter of the chain named.

Sequence of cynomolgus PD-L1 (cynomolgus) (chain, as listed by the source): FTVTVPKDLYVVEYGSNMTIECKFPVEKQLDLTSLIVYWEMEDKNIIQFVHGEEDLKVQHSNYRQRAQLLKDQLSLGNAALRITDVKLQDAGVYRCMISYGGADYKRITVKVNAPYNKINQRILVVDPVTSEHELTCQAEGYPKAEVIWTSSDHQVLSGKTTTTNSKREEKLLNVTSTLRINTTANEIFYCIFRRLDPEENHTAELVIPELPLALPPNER

One assay concerns the target cynomolgus PD-L1 (cynomolgus). Briefly: BLI. In general terms: Biolayer interferometry detects binding as a change in optical thickness at a sensor tip.
With B1, the Kd (commonly the free concentration of one partner at which half of the binding sites on the other are occupied at equilibrium, for simple one-to-one binding) came out at 3.76 nM. The same measure, in the same setting: next, B2: 3.4 nM; B3: 3.87 nM; B4: 3.24 nM. On to B5, for which the equilibrium dissociation constant (Kd) was 4.34 nM.

For another assay, the target named is human PD-L1 ECD (human, UniProt Q9NZQ7). Briefly: BLI.
Sequence of human PD-L1 ECD (Q9NZQ7 19-238): as the sequence (chain, as listed by the source) above, with T33A, S34A, N62S, Q68R, R82Q, L173F, A185T, I192T, L215H counted along it
Consider B1, for which binding was characterised by a dissociation constant (Kd) of 4.54 nM. In turn, B2 returned a Kd of 4.64 nM. Still for that read-out and setting: next, B3: 6.39 nM; B4: 4.75 nM; B5: 8.12 nM.

The target of another assay is T1, human PD-L1 (cell surface) (human, UniProt Q9NZQ7). Briefly: FACS. (A flow cytometer gives signals particle by particle.)
T1 sequence (Q9NZQ7 19-238): as the sequence (chain, as listed by the source) above, with T33A, S34A, N62S, Q68R, R82Q, L173F, A185T, I192T, L215H counted along it
On to B6, for which the EC50 – broadly, the concentration that produces a half-maximal response – worked out at 0.57 nM. On the same count and under the same terms, to B7 belongs 0.51 nM. B8 yielded an EC50 of 0.51 nM. On the same count and under the same terms, to B9 belongs 0.73 nM. Same read-out and setting: to B10 belongs 0.63 nM.

On to B11, for which the response was half-maximal at 0.52 nM (EC50). Still for that read-out and setting: to B12 belongs 0.49 nM.

A further assay deals with T1, human PD-L1 (cell surface). Briefly: FACS. This is another data set of the same source.
Regarding B13, a half-maximal effect (EC50) was put at 1.16 nM. The same measure, in the same setting: next, B14: 0.42 nM; B15: 0.6 nM; B16: 0.63 nM. In the case of B17, the response was half-maximal at 1.69 nM (EC50). Same read-out and setting: to B18 belongs 0.54 nM; to B19, 0.88 nM. On the same count and under the same terms, to B20 belongs 0.93 nM; to B21, 0.202 nM; to B22, 0.148 nM. Same read-out and setting: next, B23: 0.87 nM.

The target of another assay is T1, human PD-L1 (cell surface). Briefly: FACS, T24 cells.
Molecule B21 registered a concentration giving a half-maximal response (EC50) of 0.041 nM. Same read-out and setting: to B22 belongs 0.05 nM.

The target in the next assay is T1, human PD-L1 (cell surface). Briefly: FACS, T24 cells. The source holds these as a separate data set.
B1 had a half-maximal effective concentration (EC50) of 0.043 nM. Same read-out and setting: to B2 belongs 0.048 nM; to B3, 0.047 nM. The same measure, in the same setting: next, B4: 0.047 nM; B5: 0.083 nM.

Another assay deals with T2, mouse PD-L1 (cell surface) (mouse, UniProt Q9EP73). Briefly: FACS, Hepa1-6 cells.
T2 sequence (Q9EP73 19-238): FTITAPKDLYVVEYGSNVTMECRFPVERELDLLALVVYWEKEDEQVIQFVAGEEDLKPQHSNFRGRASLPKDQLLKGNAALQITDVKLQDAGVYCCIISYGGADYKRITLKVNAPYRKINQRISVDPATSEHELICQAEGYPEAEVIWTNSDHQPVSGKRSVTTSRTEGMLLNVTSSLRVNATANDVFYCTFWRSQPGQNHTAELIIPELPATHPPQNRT
Consider B24, for which the EC50 stood at 6.78 nM. As for B25, the concentration giving a half-maximal response (EC50) stood at 0.31 nM. The same measure, in the same setting: next, B26: 0.55 nM; B27: 0.51 nM. The same measure, in the same setting: next, B28: 0.65 nM; B29: 0.3 nM; B30: 0.31 nM.

A further assay concerns the target T1, human PD-L1 (cell surface). Briefly: FACS, NCI-H441 cells.
Take B1: the 50% effective concentration (EC50) is 0.065 nM.

B2 gave an EC50 of 0.039 nM. Still for that read-out and setting: next, B3: 0.056 nM; B31: 0.055 nM. Still for that read-out and setting: to B32 belongs 0.271 nM. The molecule B33 showed a concentration giving a half-maximal response (EC50) of 0.112 nM.

Molecule B4 gave a half-maximal effective concentration (EC50) of 0.054 nM.

B34: the EC50 was determined as 0.044 nM. The same measure, in the same setting: to B35 belongs 0.099 nM; to B36, 0.041 nM.

The target in the next assay is T1, human PD-L1 (cell surface). Briefly: FACS, CHO-h-PD-L1 cells.
Take B1: the EC50 was 0.143 nM.

B2 displayed an EC50 of 0.11 nM.

B3: the EC50 was 0.13 nM. The molecule B31 showed a concentration giving a half-maximal response (EC50) of 0.167 nM.

B32 came in with an EC50 of 0.598 nM. With B33, the 50% effective concentration (EC50) was 0.171 nM. The same measure, in the same setting: to B4 belongs 0.11 nM; to B34, 0.103 nM.

For the molecule B35, a half-maximal response (EC50) required 0.203 nM. The same measure, in the same setting: next, B36: 0.109 nM.

For another assay, the target named is T2, mouse PD-L1 (cell surface). Briefly: FACS, 293T m-PD-L1 cells.
Molecule B24 had an EC50 of 0.56 nM. The same measure, in the same setting: to B25 belongs 1.57 nM; to B26, 1.01 nM; to B27, 1.29 nM. The same measure, in the same setting: to B28 belongs 1 nM; to B29, 0.97 nM; to B30, 1.42 nM.

The values above are taken from patent publication US20260365734 (published 2026).
